Results taken from article PMC4497647.

Legend:
[1] = molecular target: HIV-1 envelope (Env) of strain DH123 (subtype B) (HIV-1 subtype B)
[2] = molecular target: HIV-1 envelope (Env) of strain JR-CSF (subtype B) (HIV-1 subtype B) (UniProt P20871)
[3] = molecular target: HIV-1 envelope (Env) of strain ZM53 (subtype C) (HIV-1 subtype C)
[4] = molecular target: HIV-1 envelope (Env) of strain BG505 (subtype A) (HIV-1 subtype A) (UniProt Q2N0S6)
[5] = molecular target: HIV-1 envelope (Env) of strain THRO (subtype B) (HIV-1 subtype B)
[6] = molecular target: HIV-1 envelope (Env) of strain PVO.4 (subtype B) (HIV-1 subtype B)
[7] = molecular target: HIV-1 envelope (Env) of strain ZM214 (subtype C) (HIV-1 subtype C)
[8] = molecular target: HIV-1 envelope (Env) of strain REJO (subtype B) (HIV-1 subtype B)
[9] = molecular target: HIV-1 envelope (Env) of strain ZM109 (subtype C) (HIV-1 subtype C)
[10] = molecular target: HIV-1 envelope (Env) of strain JR-FL (subtype B) (HIV-1 subtype B) (UniProt Q75760)
[11] = molecular target: HIV-1 envelope (Env) of strain SF162 (subtype B) (HIV-1 subtype B) (UniProt P19550)

## fusion inhibitor T-20 (peptide)
[1]
  reduction in inhibitory activity during cell-cell transmission (293-T donor to A3.01-CCR5) against free virus infection of A3.01-CCR5 (fold change IC50): < 10 fold
[2]
  reduction in inhibitory activity during cell-cell transmission (293-T donor to A3.01-CCR5) against free virus infection of A3.01-CCR5 (fold change IC50): < 10 fold
[3]
  reduction in inhibitory activity during cell-cell transmission (293-T donor to A3.01-CCR5) against free virus infection of A3.01-CCR5 (fold change IC50): < 10 fold
[4]
  reduction in inhibitory activity during cell-cell transmission (293-T donor to A3.01-CCR5) against free virus infection of A3.01-CCR5 (fold change IC50): < 10 fold
[5]
  median fold reduction for T-20 in cell-cell transmission (293-T donor to A3.01-CCR5) against free virus infection: 1.6 fold
[6]
  reduction in inhibitory activity during cell-cell transmission (293-T donor to A3.01-CCR5) against free virus infection of A3.01-CCR5 (fold change IC50): < 10 fold
[7]
  median fold reduction for T-20 in cell-cell transmission (293-T donor to A3.01-CCR5) against free virus infection: 5.3 fold
[8]
  reduction in inhibitory activity during cell-cell transmission (293-T donor to A3.01-CCR5) against free virus infection of A3.01-CCR5 (fold change IC50): < 10 fold
[9]
  reduction in inhibitory activity during cell-cell transmission (293-T donor to A3.01-CCR5) against free virus infection of A3.01-CCR5 (fold change IC50): < 10 fold
[10]
  reduction in inhibitory activity during cell-cell transmission (293-T donor to A3.01-CCR5) against free virus infection of A3.01-CCR5 (fold change IC50): < 10 fold
[11]
  reduction in inhibitory activity during cell-cell transmission (293-T donor to A3.01-CCR5) against free virus infection of A3.01-CCR5 (fold change IC50): < 10 fold
